{
  "source": "the supplement of paper PMC12042874",
  "note": "± gives the uncertainty stated by the source.",
  "data": [
    {"assay": "amyloid nucleation score (Sup35N fusion, yeast selection) (log enrichment); library NNK3; higher = more nucleation; inactive = no reads after selection", "in_short": "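Peptides of 20 random codons, each fused to Sup35N, were expressed in psi-negative yeast. Cells were induced with 100 μM copper sulfate for 24 hours and grown 7 days at 30°C on medium lacking adenine and uracil, and plasmid inserts before and after selection were Illumina-sequenced. Nucleation scores are DiMSum log enrichments of output over input reads, centred on the mode score of non-aggregating sequences, and sequences under 100 input reads were excluded.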", "values": [
      {"substance": "SRNVGFGINSQQGLFFRVVV", "amyloid nucleation score": "inactive"},
      {"substance": "IIDYRDQRVLESLRFYVLCS", "amyloid nucleation score": "inactive"},
      {"substance": "RCYVCRTMRACMVLAAKLEP", "amyloid nucleation score": "inactive"},
      {"substance": "CRINEWLGIGNSVSSSDHMG", "amyloid nucleation score": "inactive"},
      {"substance": "RILLNANRYTMPSGVYDHRA", "amyloid nucleation score": "inactive"},
      {"substance": "YGHSRWSKISHRSSACLFGS", "amyloid nucleation score": "inactive"},
      {"substance": "RCYVNYIRTYICAYCFAVNE", "amyloid nucleation score": "2.39 ± 0.074"},
      {"substance": "QQYSTAYYIHGFTKMVGVVA", "amyloid nucleation score": "0.298 ± 0.19"},
      {"substance": "FELRVV", "amyloid nucleation score": "inactive"},
      {"substance": "DCLFRNLMS", "amyloid nucleation score": "inactive"},
      {"substance": "FRYVVHTESYTIESVEVIR", "amyloid nucleation score": "1.22 ± 0.094"},
      {"substance": "SYSVSCTDGWSIVFMFSHIA", "amyloid nucleation score": "inactive"},
      {"substance": "GTYFSCVYGTKKL", "amyloid nucleation score": "inactive"},
      {"substance": "VVDGSRCPPLSLSSDMWAR", "amyloid nucleation score": "inactive"},
      {"substance": "IRASFEPWVLVRVFYSLCYG", "amyloid nucleation score": "inactive"},
      {"substance": "KGLVLAYILSRSVFERFKGG", "amyloid nucleation score": "inactive"},
      {"substance": "CKTIKVVLAALGFCYPQYSL", "amyloid nucleation score": "inactive"},
      {"substance": "LLYETLLIIMCGKCLQFYIV", "amyloid nucleation score": "inactive"},
      {"substance": "IGYVMFGTSSSAFRITYISK", "amyloid nucleation score": "inactive"},
      {"substance": "SSGYAFTGKVFYC", "amyloid nucleation score": "inactive"},
      {"substance": "EIRRCTPCLLWVLLLFAINR", "amyloid nucleation score": "inactive"},
      {"substance": "AESIR", "amyloid nucleation score": "inactive"},
      {"substance": "FLYRDDDHSYVSESDLNSCS", "amyloid nucleation score": "inactive"},
      {"substance": "FIGMDIIKYLS", "amyloid nucleation score": "0.631 ± 0.16"},
      {"substance": "RHEVRRKKSQ", "amyloid nucleation score": "inactive"},
      {"substance": "MLYVLSYWLLKMPQMLNVNP", "amyloid nucleation score": "inactive"},
      {"substance": "DSGSHNDCNGCSNY", "amyloid nucleation score": "inactive"},
      {"substance": "WLVAEFQTYPMTQHLYVSMR", "amyloid nucleation score": "inactive"},
      {"substance": "RDFTSYGCFVASSSLDRSFL", "amyloid nucleation score": "inactive"},
      {"substance": "QGFFRFSLVSAKRACKLDYS", "amyloid nucleation score": "inactive"},
      {"substance": "RLSAPCCWYNTLIE", "amyloid nucleation score": "1.96 ± 0.099"},
      {"substance": "KWCKKKQFKSLDWLTYDI", "amyloid nucleation score": "inactive"},
      {"substance": "VTSESSSMGLTLSF", "amyloid nucleation score": "inactive"},
      {"substance": "GSWMCVMLRVFCSCSWLYCS", "amyloid nucleation score": "-0.018 ± 0.93"},
      {"substance": "RPAVLGPAFRYSSLAP", "amyloid nucleation score": "inactive"},
      {"substance": "SELETQDIYMRSQPFTEFSP", "amyloid nucleation score": "inactive"},
      {"substance": "RSTSSENYFYWFKS", "amyloid nucleation score": "inactive"},
      {"substance": "CIWLTVIFSWRYEVG", "amyloid nucleation score": "inactive"},
      {"substance": "TPLARFFTCPHIYYLSPGHS", "amyloid nucleation score": "inactive"},
      {"substance": "YRPWHDIRTICCSTSSSTIE", "amyloid nucleation score": "2.5 ± 0.063"},
      {"substance": "DRTMLFVTCFNFRRSS", "amyloid nucleation score": "1.64 ± 0.078"},
      {"substance": "GFAYESQAA", "amyloid nucleation score": "inactive"},
      {"substance": "CIRIYATFFKLRQSYNGTNG", "amyloid nucleation score": "1.03 ± 0.14"},
      {"substance": "RRKKQFFFLFFSHRNLFFPV", "amyloid nucleation score": "2.18 ± 0.097"},
      {"substance": "CRRPKRNH", "amyloid nucleation score": "inactive"},
      {"substance": "TRLLAGFSWYVTFPVNVSGS", "amyloid nucleation score": "inactive"},
      {"substance": "FLCQFLRFFCIN", "amyloid nucleation score": "1.04 ± 0.13"},
      {"substance": "RWVNWLLYDKV", "amyloid nucleation score": "inactive"},
      {"substance": "KLICVRTDWWSCVIISRFSL", "amyloid nucleation score": "inactive"},
      {"substance": "SAEVAYGSFVYAGSWCRSVR", "amyloid nucleation score": "inactive"},
      {"substance": "DGFYYSALLMFLV", "amyloid nucleation score": "inactive"},
      {"substance": "YLCFLSKMVSYSISYQWSRQ", "amyloid nucleation score": "inactive"},
      {"substance": "YSEYMVTNRKVSAGHTARWD", "amyloid nucleation score": "inactive"},
      {"substance": "LAVFFDRD", "amyloid nucleation score": "inactive"},
      {"substance": "EFPRGLGSR", "amyloid nucleation score": "-0.236 ± 1"},
      {"substance": "NWSVHTGIDKVKADDGEFQL", "amyloid nucleation score": "inactive"},
      {"substance": "PNPYGNGIITWKN", "amyloid nucleation score": "inactive"},
      {"substance": "DRAFYYTLKYLRD", "amyloid nucleation score": "inactive"},
      {"substance": "CKYSMRLDCLARNNDLKVLL", "amyloid nucleation score": "inactive"},
      {"substance": "AFLPMCGLDFKWRYV", "amyloid nucleation score": "-0.22 ± 1.4"},
      {"substance": "ELLGGLSLLGMSIFVLLSSL", "amyloid nucleation score": "inactive"},
      {"substance": "SDFEAFSFGDNMVFLIEMEG", "amyloid nucleation score": "inactive"},
      {"substance": "VMNHLRRTNLVPTSAVNAYN", "amyloid nucleation score": "inactive"},
      {"substance": "CCQLGESTENGLFSDDWRCE", "amyloid nucleation score": "inactive"}
    ]}
  ]
}
